Our source for the peptide exchange yield values is US20180282393A1 (IMMATICS BIOTECHNOLOGIES, published 2018).

This assay has as its target T1, HLA-A*02:01 (human).
T1 construct: Captured on streptavidin plates and detected with anti-b2m; also called peptide-receptive MHC molecules; MHC class I
The assay is described as follows: UV-ligand exchange, anti-b2m ELISA; peptide exchange yield grade (+ >=10%, ++ >=20%, +++ >=50, ++++ >=75%). The source says: Candidate peptides for T cell based therapies according to the present invention were further tested for their MHC binding capacity (affinity). The individual peptide-MHC complexes were produced by UV-ligand exchange, where a UV-sensitive peptide is cleaved upon UV-irradiation, and exchanged with the peptide of interest as analyzed. Only peptide candidates that can effectively bind and stabilize the peptide-receptive MHC molecules prevent dissociation of the MHC complexes. To determine the yield of the exchange reaction, an ELISA was performed based on the detection of the light chain (β2m) of stabilized MHC complexes. The assay was performed as generally described in Rodenko et al. (Rodenko et al., 2006).
96 well MAXISorp plates (NUNC) were coated over night with 2 ug/ml streptavidin in PBS at room temperature, washed 4× and blocked for 1 h at 37° C. in 2% BSA containing blocking buffer. Refolded HLA-A*02:01/MLA-001 monomers served as standards, covering the range of 15-500 ng/ml. Peptide-MHC monomers of the UV-exchange reaction were diluted 100 fold in blocking buffer. Samples were incubated for 1 h at 37° C., washed four times, incubated with 2 ug/ml HRP conjugated anti-β2m for 1 h at 37° C., washed again and detected with TMB solution that is stopped with […]. Absorption was measured at 450 nm. Candidate peptides that show a high exchange yield (preferably higher than 50%, most preferred higher than 75%) are generally preferred for a generation and production of antibodies or fragments thereof, and/or T cell receptors or fragments thereof, as they show sufficient avidity to the MHC molecules and prevent dissociation of the MHC complexes.

With GLAPNTPGKA, the peptide exchange yield is 50 to 75%.

LLFAGTMTV returned a peptide exchange yield of 20 to 50%.

In turn, VVMEELLKV came in with a peptide exchange yield of 20 to 50%.

In turn, GLMKDIVGA showed a peptide exchange yield of 50 to 75%.

As to FLLRFSQDNA, the peptide exchange yield is 20 to 50%.

Molecule VVVTGLTLV yielded a peptide exchange yield of 20 to 50%.

In the case of ATGNDRKEAAENSL, the peptide exchange yield was in the range of 50 to 75%.

VLAEGGEGV showed a peptide exchange yield of 50 to 75%.

Take NLMASQPQL: the peptide exchange yield lay in the range of 50 to 75%.

SLYNLGGSKRISI: the peptide exchange yield was not below 75%.

VLASGFLTV gave a peptide exchange yield not below 75%.

MISRTPEV: the peptide exchange yield was 20 to 50%.

As for KLFGHLTSA, the peptide exchange yield is 20 to 50%.

LILESIPVV returned a peptide exchange yield of 20 to 50%.

Take SLSPVILGV: the peptide exchange yield is not below 75%.

Molecule STYGGGLSV had a peptide exchange yield of 50 to 75%.

Regarding SLNGNQVTV, the peptide exchange yield fell in the range of 10 to 20%.

Take KLNDTYVNV: the peptide exchange yield lay within 50 to 75%.

Take SIFEGLLSGV: the peptide exchange yield was 20 to 50%.

LLRFSQDNA had a peptide exchange yield of 50 to 75%.

LAYTLGVKQL yielded a peptide exchange yield of 50 to 75%.

With MLTELEKAL, the peptide exchange yield was 20 to 50%.

ALVEVTEHV gave a peptide exchange yield of 20 to 50%.

Turning to TQTTHELTI, the peptide exchange yield is 50 to 75%.

Regarding TQTAVITRI, the peptide exchange yield fell in the range of 10 to 20%.

Regarding YVVGGFLYQRL, the peptide exchange yield was 50 to 75%.

Take YMLDIFHEV: the peptide exchange yield was in the range of 20 to 50%.

With ALWLPTDSATV, the peptide exchange yield was 50 to 75%.

As for TASAITPSV, the peptide exchange yield is 50 to 75%.

As to YTQPFSHYGQAL, the peptide exchange yield lay within 50 to 75%.

The molecule GLAPFLLNAV returned a peptide exchange yield of 50 to 75%.

Consider LLANGVYAA, for which the peptide exchange yield was 10 to 20%.

The molecule GLDVTSLRPFDL registered a peptide exchange yield of 50 to 75%.

GLESEELEPEEL displayed a peptide exchange yield of 20 to 50%.

On to YTAQIGADIAL, for which the peptide exchange yield is 50 to 75%.

With VLPKLYVKL, the peptide exchange yield is 20 to 50%.

For MLAEKLLQA, the peptide exchange yield lay in the range of 10 to 20%.

With LLPPPPPPA, the peptide exchange yield lay within 50 to 75%.

As to LVRDTQSGSL, the peptide exchange yield was 20 to 50%.

Molecule YQDLLNVKM had a peptide exchange yield of 50 to 75%.

For GAIDLLHNV, the peptide exchange yield lay in the range of 20 to 50%.

As to IAAIRGFLV, the peptide exchange yield was 50 to 75%.

In turn, LLSGDLIFL yielded a peptide exchange yield of 50 to 75%.

With RLPNAGTQV, the peptide exchange yield was not below 75%.

SLDGFTIQV showed a peptide exchange yield of 20 to 50%.

For the molecule ALYEYQPLQI, the peptide exchange yield was 20 to 50%.

SLVSEQLEPA: the peptide exchange yield lay in the range of 50 to 75%.

FLLDQVQLGL registered a peptide exchange yield of 50 to 75%.

For the molecule LLDEKVQSV, the peptide exchange yield is 50 to 75%.

Consider GLTDVIRDV, for which the peptide exchange yield is not below 75%.

Turning to KVVGKDYLL, the peptide exchange yield is 10 to 20%.

In the case of GLAFSLYQA, the peptide exchange yield was in the range of 20 to 50%.

For GLASRILDA, the peptide exchange yield lay in the range of 50 to 75%.

As to KLSDSATYL, the peptide exchange yield was 50 to 75%.

With NLREGDQLL, the peptide exchange yield is 50 to 75%.

As to SLDGTELQL, the peptide exchange yield was in the range of 50 to 75%.

The molecule SLLDTLREV yielded a peptide exchange yield of 50 to 75%.

The molecule VAIGGVDGNVRL registered a peptide exchange yield of 20 to 50%.

SMHQMLDQTL came in with a peptide exchange yield of 20 to 50%.

Take IVREFLTAL: the peptide exchange yield lay within 50 to 75%.
